In patent US20070196872A1:

Key:
[1] = target: Frizzled4 (UniProt Q9ULV1); assay: cell-based or functional assay
[2] = target: LRP5 (Zmax1) (UniProt O75197); assay: cell-based or functional assay
Sequence of UniProt O75197 (O75197 32-1615 limits assumed): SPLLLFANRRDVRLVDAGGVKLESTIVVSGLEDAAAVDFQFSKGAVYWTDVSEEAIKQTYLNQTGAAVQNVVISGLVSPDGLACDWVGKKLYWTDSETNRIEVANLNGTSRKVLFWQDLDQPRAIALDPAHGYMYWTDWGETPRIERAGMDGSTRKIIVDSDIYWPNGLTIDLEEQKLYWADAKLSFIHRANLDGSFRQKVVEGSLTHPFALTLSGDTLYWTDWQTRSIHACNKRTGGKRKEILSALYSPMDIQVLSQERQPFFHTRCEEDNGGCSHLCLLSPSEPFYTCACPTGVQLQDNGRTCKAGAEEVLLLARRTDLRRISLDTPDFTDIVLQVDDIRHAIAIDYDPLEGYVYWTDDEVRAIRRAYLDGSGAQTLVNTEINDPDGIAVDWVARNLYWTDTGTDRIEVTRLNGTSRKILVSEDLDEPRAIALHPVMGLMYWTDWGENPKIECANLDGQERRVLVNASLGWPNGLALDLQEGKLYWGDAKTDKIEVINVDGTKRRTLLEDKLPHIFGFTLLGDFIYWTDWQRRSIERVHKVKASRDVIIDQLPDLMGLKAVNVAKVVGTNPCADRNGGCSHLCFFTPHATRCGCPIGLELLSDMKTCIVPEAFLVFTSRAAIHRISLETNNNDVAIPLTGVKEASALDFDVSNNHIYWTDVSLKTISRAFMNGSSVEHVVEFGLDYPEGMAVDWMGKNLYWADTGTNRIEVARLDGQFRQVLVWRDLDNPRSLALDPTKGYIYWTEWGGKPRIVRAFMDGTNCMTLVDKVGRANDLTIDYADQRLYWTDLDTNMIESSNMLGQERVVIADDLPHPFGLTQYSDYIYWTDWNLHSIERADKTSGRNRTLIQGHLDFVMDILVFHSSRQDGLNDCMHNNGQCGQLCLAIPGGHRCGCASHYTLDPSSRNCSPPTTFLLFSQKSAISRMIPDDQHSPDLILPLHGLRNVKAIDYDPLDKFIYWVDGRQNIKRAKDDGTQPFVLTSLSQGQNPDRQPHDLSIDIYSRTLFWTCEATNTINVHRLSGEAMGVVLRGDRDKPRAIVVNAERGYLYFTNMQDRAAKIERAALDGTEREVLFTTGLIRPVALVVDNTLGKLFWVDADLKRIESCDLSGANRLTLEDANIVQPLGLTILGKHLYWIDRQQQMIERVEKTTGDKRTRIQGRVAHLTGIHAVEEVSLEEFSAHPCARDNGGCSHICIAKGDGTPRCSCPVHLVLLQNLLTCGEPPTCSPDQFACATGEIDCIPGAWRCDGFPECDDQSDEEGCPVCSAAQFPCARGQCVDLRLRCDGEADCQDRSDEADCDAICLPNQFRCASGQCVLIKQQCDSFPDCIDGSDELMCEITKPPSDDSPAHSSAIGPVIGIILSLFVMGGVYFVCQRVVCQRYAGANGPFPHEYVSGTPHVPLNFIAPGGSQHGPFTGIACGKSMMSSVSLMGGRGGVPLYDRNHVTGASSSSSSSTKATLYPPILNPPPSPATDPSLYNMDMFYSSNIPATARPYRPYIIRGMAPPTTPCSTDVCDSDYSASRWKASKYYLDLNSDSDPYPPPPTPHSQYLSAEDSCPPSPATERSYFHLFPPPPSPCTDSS

Sequence of UniProt Q9ULV1 (Q9ULV1 37-537 limits assumed): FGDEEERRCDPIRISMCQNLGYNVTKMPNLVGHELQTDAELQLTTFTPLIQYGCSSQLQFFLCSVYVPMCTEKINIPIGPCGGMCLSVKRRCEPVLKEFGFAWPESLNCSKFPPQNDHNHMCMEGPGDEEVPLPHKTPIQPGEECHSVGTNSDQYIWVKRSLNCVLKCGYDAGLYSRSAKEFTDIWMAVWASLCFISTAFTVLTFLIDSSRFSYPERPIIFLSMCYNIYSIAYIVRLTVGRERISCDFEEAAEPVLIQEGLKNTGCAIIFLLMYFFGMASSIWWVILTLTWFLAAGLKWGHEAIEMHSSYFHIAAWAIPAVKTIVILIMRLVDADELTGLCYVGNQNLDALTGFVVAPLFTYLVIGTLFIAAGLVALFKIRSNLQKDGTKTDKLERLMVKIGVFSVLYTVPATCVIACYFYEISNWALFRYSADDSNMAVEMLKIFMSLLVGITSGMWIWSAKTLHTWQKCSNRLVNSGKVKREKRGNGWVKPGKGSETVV
Sequence of Norrin (Q00604 25-133 limits assumed): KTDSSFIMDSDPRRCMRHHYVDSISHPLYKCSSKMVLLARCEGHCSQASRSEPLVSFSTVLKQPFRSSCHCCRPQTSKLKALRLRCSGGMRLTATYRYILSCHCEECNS

Question: “Norrin (from UniProt Q00604 25-133) (ligand)” was tested. Which TCF activity, further enhancement when Fz4, LRP5 and Norrin were all co-transfected in U20S cells [1] did it give?
Answer: 2 to 6 fold

Question: And the TCF response (TCF-luci to renilla), Norrin and Fz4 co-transfected in HEK-293A cells [1]?
Answer: 6 fold

Question: What about the TCF-signal, LRP5 co-transfected along with Fz4 and Norrin in HEK-293 cells [1] of the same substance?
Answer: < 16 fold

Question: What about the ratio of TCF-luci to renilla luminescence, Norrin cDNA alone transfected in U20S cells (endogenous Fz4 inferred) [1] of the same substance?
Answer: 2 to 3 fold

Question: And the ratio of TCF-luci to renilla signal, Fz4 and Norrin co-transfected in U20S cells [1]?
Answer: 15 fold

Question: What about the ratio of TCF-luci to renilla luminescence, Norrin and LRP5 co-transfected in U20S cells [2] of the same substance?
Answer: 6 fold
